Reference: article PMC3094553 (Nature methods, 2009)
Where “and” joins values, the source holds several entries; their conditions need not be identical. Equal values may be shown once. Read-outs that look alike come from different tables or passages of the source.

Columns and labels:
SAXS [1] = biological target: the molecule itself; experiment: SAXS
SAXS [2] = biological target: the molecule itself; experiment: SAXS; remark: listed apart in the source

Protein | stoichiometry N (SAXS [1]) | percent of the sample as 2-mer (SAXS [1]) | stoichiometry N (SAXS [2])
superoxide reductase (PF1281, SOR) (enzyme) MISETIRSGDWKGEKHVPVIEYEREGELVKVKVQVGKEIPHPNTTEHHIRYIELYFLPEGENFVYQVGRVEFTAHGESVNGPNTSDVYTEPIAYFVLKTKKKGKLYALSYCNIHGLWENEVTLE | 4 | – | –
PF1033 (thioredoxin-like fold) (natural protein) MIVIGEKFPEVEVKTTHGVIKLPDHFTKQGKWFMLFSHPADFTPVCTTEFYGLQIRLEKFRELGVEPIGLSVDQVFSHLKWMEWIKEKLGVEIEFPVIADDRGDLAEKLGMIPSGSTITARAVFIVDDKGIIRAIVYYPAEVGRDWDEILRLVKALKISTEKGVALPHKWPNNELIGDKVIVPPASSVEQIKEREEAKAKGEIECYDWWFCYKKLE | 10 | – | –
PF0094 (glutaredoxin-like) (natural protein) MGLISDADKKVIKEEFFSKMVNPVKLIVFVRKDHCQYCDQLKQLVQELSELTDKLSYEIVDFDTPEGKELAKRYRIDRAPATTITQDGKDFGVRYFGLPAGHEFAAFLEDIVDVSREETNLMDETKQAIRNIDQDVRILVFVTPTCPYCPLAVRMAHKFAIENTKAGKGKILGDMVEAIEYPEWADQYNVMAVPKIVIQVNGEDRVEFEGAYPEKMFLEKLLSALS | 4 and 2 | 92% | –
PF1911 (ferredoxin NADP reductase) (natural protein) MYKILEKKEIAMRNTWYKVYAPHVAKKVQPGQFVIVRAFPNGERIPLTPVMWDREEGWIVLIVFTRGKTTMRMAVELKEGDSLLNVAGPLGTPVPMEKFGKILAIGAYTGIVEVYPIAKAWQEIGNDVTTLHVTFEPMVILKEELEKAVTRHIVEPVPLNPNQDFLANMKNVSQRLKEKVRELLESEDWDLVFMVGPVGDQKQVFEVVKEYGVPMKVDLHPIMVDGTGMCGACRVTVGGEVKFACVDGPEFDAYQVDWDELIHRVGFYAKLEKLALEKYMEELKAKGVI | 2 | – | –
PF0014/0015 complex (complex) chain 1: MEEKKPVNLVLPEVENAIFIEGYPGVGLVGHIAANFLAKELDMDLIGYVDSLFIPPMSLILEGRPTPPLRFYGKNNIIIAIADIFLPPTLVNEIAKEIVNYLKKVNAEKVISLAGMGIGFFKDTFEVWGIGGSEEENKELESLGVKILKYGSITGMSGKLLWEASRAGLKSYVLLGETFGDRPDPRAAANVVEVLNKMLGLNVSVEPLLKEAEMIEEQLRRMHEQMEEARRKMERQYETMYL chain 2: MVVEIPLLSGIARRTLDALMRNPIRTVEIRNARNYMTLEKVKEGDLVFLTYESLEDVMRGTEGIIAMVTRMEKSHQRVPWEESDEREISICRVQLKLVGLGRVVEVQEKNGVVFVKVREMLHHEISMG | – | – | > 8
PF1291 (phosphoesterase) (natural protein) MVYVAVLANIAGNLPALTAALSRIEEMREEGYEIEKYYILGNIVGLFPYPKEVIEVIKDLTKKENVKIIRGKYDQIIAMSDPHATDPGYIDKLELPGHVKKALKFTWEKLGHEGREYLRDLPIYLVDKIGGNEVFGVYGSPINPFDGEVLAEQPTSYYEAIMRPVKDYEMLIVASPMYPVDAMTRYGRVVCPGSVGFPPGKEHKATFALVDVDTLKPKFIEVEYDKKIIEERIRAEGLPEEIIKILYHGGRP | 4 | – | –
PF0230 (ArsR transcription regulator) (natural protein) MTKRVKVITDPEVIKVMLEDTRRKILQLLRNREMTISQLSEILGKMPQTIYHHIEKLKEAGLVEVKRTEMKGNLVEKYYGRTADVFYINLYMGDEELRYLARSRLKTKLDIFKKLGYKFDEEELLNVMDRILEKEHEVKVEISKEIENVEDSLKEFSNEDIIHAIEWLAMARLAQDEEYIELVKKLGQILKR | 2 | – | –
PF0259 (conserved hypothetical protein) (natural protein) MAVIIEFSLIPLGEVSVSKYIAEAIKLLEEKGVKYQLTPMGTIIEVGSVEEGLKIVGEAHELMFKLGVKRVVTHIKIDDRRDKERKMEDKVKSVIEKVKK | 8 | – | –
PF0715 (NADH oxidase) (natural protein) MEFFEVLKKRRSIRRFQDKPVPRELIEKLLEAAFLSPSSYNKRPCHFIVVDDREKLEALSKSKLGASGLKTAPVAIVVTADESKSDVWIEDASIAAEHIHLASYALGLASFWVQIRNRMHNETKTAEEYVRELLNIPENYRVLCIIGVGYPAEDKPPHGNEVFEWEKVSYNEFGKRFK | 2 | – | –
PF1950 (phosphoribosyl transferase) (natural protein) MKKFPAYLASWEDIENWAKAGAWKVLESGWMPDVIVGLARGGWIAARLYCDYLGVKDLVSIKVEHWGVTATPDGRARLKYGAQYDFEGKKVLIVDDITDTGESMSLAYEYMKSRNPAEIRTATLLNIKGSKFVPDYYAKDIDWVWVVFPWNFVEDMINLTNNLFEEKDKLTTDEIISLFKELHGIEVPREKLEEALRMAEKRKIFKFENGFWTKV | 2 | – | –
PF0939 (isopropylmalate dehydratase) (natural protein) MKARGRAWKYGDNIDTDVIIPARYLNTSDPKELAQHVLEDLDPEFRYKMKPGDIIVAGENFGCGSSREHAPLAIKAAGVSAVIAKSFARIFYRNAINIGLPILEAPEAVERIETGDEIEIDFSTGEIRNLTKGEVYHANPFPEFIMEIIKAGGLVEWAKRRLAK | 2 | – | –
PF0380 (conserved hypothetical protein) (natural protein) MGVEKVPKYDIPVKKVEYVFIELDKMKPHEQLVQRELEDFIESVTGSGIFWKPMLLAKIPGTDEYLIVDGHHRWAGLQKLGAKRAPSVILDYFDEGVKVYTWYPAFKGDVNKVIERLKAEGLEVIEDEKAEEKAEKGEIAFALIGEKSFAIPGGLEEQKKVSKVLDEMDQAKEIELVYYGLKEDAKADMEKGEIDYVFIRKAPTKEEVMELVKRGEVFSPKTTRHVLPFIPDKIDVKLEDLF | 2 | 68% | –
PF1372 (conserved hypothetical protein) (natural protein) MTEIRYYKIGEDRFKISEDEVARRELRVAKVSDDVIQIQEEVHGIIALVGATSSVNIKKEELKELVKLVREEFGWDI | 4 | – | –
ferredoxin (PF1909, Fd) (natural protein) AWKVSVDQDTCIGDAICASLCPDVFEMNDEGKAQPKVEVIEDEELYNCAKEAMEACPVSAITIEEA | 2 | 40% | –
PF0619 (conserved hypothetical protein) (natural protein) MLVPGRVYLFRIPEGKEIIEFLREFAEKENIKVGIISAIGTLRNPVIGYFMEEEKKYKEISLTGTYELLSLSGNISLKDGKPFVHAHVVLGDSEGRAFGGHLVRGEVFVAEVFVQELEGETLERKPTEHGLALW | 3 | – | –
acetyl-CoA synthetase subunit (PF1787) (natural protein) MDRVAKAREIIEKAKAENRPLVEPEAKEILKLYGIPVPEFKVARNEEEAVKFSGEIGYPVVMKIVSPQIIHKSDAGGVKINIKNDEEAREAFRTIMQNARNYKPDADLWGVIIYRMLPLGREVIVGMIRDPQFGPAVMFGLGGIFVEILKDVSFRVAPITKEDALEMIREIKAYPILAGARGEKPVNIEALADIIVKVGELALELPEIKEIDINPIFAYEDSAIAVDARMIL | 3 | – | –
